Experimental data published in article PMC2707180 (Nature structural & molecular biology, 2008).

Molecular target: full-length Brr2 with C-terminal calmodulin-binding domain (S. cerevisiae, UniProt P32639 1-2163)
Assay: pull-down

full-length Brr2 with C-terminal calmodulin-binding domain, sequence (P32639 whole entry, the tested form may be a part): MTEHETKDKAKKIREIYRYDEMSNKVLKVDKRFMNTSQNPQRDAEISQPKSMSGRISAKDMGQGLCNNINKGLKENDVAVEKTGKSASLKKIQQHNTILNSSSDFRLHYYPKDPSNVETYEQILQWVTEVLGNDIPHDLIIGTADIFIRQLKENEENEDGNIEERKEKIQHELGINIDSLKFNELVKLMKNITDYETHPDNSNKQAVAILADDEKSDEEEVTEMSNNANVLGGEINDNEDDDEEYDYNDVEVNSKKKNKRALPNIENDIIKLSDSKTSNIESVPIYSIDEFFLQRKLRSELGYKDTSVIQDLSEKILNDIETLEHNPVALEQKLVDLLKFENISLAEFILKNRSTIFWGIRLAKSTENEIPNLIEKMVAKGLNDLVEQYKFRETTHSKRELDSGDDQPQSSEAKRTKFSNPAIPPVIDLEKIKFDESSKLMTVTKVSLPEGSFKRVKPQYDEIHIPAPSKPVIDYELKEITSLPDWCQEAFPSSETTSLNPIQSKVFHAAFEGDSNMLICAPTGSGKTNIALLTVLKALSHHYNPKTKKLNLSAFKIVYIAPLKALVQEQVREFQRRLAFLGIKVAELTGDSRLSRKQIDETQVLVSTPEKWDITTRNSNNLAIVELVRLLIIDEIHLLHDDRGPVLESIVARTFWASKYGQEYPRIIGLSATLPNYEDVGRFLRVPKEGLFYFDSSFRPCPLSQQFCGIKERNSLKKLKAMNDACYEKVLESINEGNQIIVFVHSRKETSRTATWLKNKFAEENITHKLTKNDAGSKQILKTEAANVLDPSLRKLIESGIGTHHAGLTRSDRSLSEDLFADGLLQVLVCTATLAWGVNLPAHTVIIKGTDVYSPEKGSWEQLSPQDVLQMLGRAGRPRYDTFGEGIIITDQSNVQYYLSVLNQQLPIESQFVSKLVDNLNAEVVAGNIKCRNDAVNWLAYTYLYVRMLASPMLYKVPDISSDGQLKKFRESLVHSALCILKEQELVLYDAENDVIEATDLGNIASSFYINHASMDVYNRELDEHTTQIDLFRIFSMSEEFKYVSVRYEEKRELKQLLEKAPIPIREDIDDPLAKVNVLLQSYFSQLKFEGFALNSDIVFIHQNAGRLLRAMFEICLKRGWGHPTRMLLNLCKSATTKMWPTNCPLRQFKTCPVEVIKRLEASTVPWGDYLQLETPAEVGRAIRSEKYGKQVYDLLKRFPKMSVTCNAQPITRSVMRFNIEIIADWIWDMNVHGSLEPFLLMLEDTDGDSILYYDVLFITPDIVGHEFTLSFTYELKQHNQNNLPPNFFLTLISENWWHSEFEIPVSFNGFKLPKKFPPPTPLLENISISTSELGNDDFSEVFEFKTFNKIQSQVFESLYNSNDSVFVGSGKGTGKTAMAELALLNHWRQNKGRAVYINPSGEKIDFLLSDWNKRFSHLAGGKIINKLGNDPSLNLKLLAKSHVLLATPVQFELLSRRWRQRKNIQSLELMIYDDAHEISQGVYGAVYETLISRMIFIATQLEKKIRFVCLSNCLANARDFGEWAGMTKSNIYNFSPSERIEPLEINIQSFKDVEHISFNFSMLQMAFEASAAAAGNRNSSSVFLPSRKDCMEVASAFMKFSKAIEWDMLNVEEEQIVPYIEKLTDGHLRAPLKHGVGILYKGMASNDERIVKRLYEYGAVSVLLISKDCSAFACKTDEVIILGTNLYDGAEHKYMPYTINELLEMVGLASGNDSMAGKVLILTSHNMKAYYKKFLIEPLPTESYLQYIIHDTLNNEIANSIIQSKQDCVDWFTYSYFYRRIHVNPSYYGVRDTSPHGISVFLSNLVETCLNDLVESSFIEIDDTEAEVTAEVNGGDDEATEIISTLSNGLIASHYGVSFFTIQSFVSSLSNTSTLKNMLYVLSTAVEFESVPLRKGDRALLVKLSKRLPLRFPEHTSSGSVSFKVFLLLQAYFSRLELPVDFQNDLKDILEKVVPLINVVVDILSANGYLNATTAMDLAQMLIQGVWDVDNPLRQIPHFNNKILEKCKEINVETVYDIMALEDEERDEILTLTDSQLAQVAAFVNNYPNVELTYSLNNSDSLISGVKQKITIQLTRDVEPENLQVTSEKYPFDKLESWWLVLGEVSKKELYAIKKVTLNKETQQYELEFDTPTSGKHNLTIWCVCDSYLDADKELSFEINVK

binding result	Binder
binds	GST-tagged C-terminal fragment of Prp8 (1806-2413 aa) (domain or fragment) MKANPALYVLRERIRKGLQIYQSSVQEPFLNSSNYAELFNNDIKLFVDDTNVYRVTVHKTFEGNVATKAINGCIFTLNPKTGHLFLKIIHTSVWAGQKRLSQLAKWKTAEEVSALVRSLPKEEQPKQIIVTRKAMLDPLEVHMLDFPNIAIRPTELRLPFSAAMSIDKLSDVVMKATEPQMVLFNIYDDWLDRISSYTAFSRLTLLLRALKTNEESAKMILLSDPTITIKSYHLWPSFTDEQWITIESQMRDLILTEYGRKYNVNISALTQTEIKDIILGQNIKAPSVKRQKMAELEAARSEKQNDEEAAGASTVMKTKTINAQGEEIVVVASADYESQTFSSKNEWRKSAIANTLLYLRLKNIYVSADDFVEEQNVYVLPKNLLKKFIEISDVKIQVAAFIYGMSAKDHPKVKEIKTVVLVPQLGHVGSVQISNIPDIGDLPDTEGLELLGWIHTQTEELKFMAASEVATHSKLFADKKRDCIDISIFSTPGSVSLSAYNLTDEGYQWGEENKDIMNVLSEGFEPTFSTHAQLLLSDRITGNFIIPSGNVWNYTFMGTAFNQEGDYNFKYGIPLEFYNEMHRPVHFLQFSELAGDEELEAEQIDVFS
binds	GST-tagged Prp8-CTF with the RP mutation R2388K (domain or fragment) MKANPALYVLRERIRKGLQIYQSSVQEPFLNSSNYAELFNNDIKLFVDDTNVYRVTVHKTFEGNVATKAINGCIFTLNPKTGHLFLKIIHTSVWAGQKRLSQLAKWKTAEEVSALVRSLPKEEQPKQIIVTRKAMLDPLEVHMLDFPNIAIRPTELRLPFSAAMSIDKLSDVVMKATEPQMVLFNIYDDWLDRISSYTAFSRLTLLLRALKTNEESAKMILLSDPTITIKSYHLWPSFTDEQWITIESQMRDLILTEYGRKYNVNISALTQTEIKDIILGQNIKAPSVKRQKMAELEAARSEKQNDEEAAGASTVMKTKTINAQGEEIVVVASADYESQTFSSKNEWRKSAIANTLLYLRLKNIYVSADDFVEEQNVYVLPKNLLKKFIEISDVKIQVAAFIYGMSAKDHPKVKEIKTVVLVPQLGHVGSVQISNIPDIGDLPDTEGLELLGWIHTQTEELKFMAASEVATHSKLFADKKRDCIDISIFSTPGSVSLSAYNLTDEGYQWGEENKDIMNVLSEGFEPTFSTHAQLLLSDRITGNFIIPSGNVWNYTFMGTAFNQEGDYNFKYGIPLEFYNEMHKPVHFLQFSELAGDEELEAEQIDVFS
binds	GST-tagged Prp8-CTF with the RP mutation F2382L (domain or fragment) MKANPALYVLRERIRKGLQIYQSSVQEPFLNSSNYAELFNNDIKLFVDDTNVYRVTVHKTFEGNVATKAINGCIFTLNPKTGHLFLKIIHTSVWAGQKRLSQLAKWKTAEEVSALVRSLPKEEQPKQIIVTRKAMLDPLEVHMLDFPNIAIRPTELRLPFSAAMSIDKLSDVVMKATEPQMVLFNIYDDWLDRISSYTAFSRLTLLLRALKTNEESAKMILLSDPTITIKSYHLWPSFTDEQWITIESQMRDLILTEYGRKYNVNISALTQTEIKDIILGQNIKAPSVKRQKMAELEAARSEKQNDEEAAGASTVMKTKTINAQGEEIVVVASADYESQTFSSKNEWRKSAIANTLLYLRLKNIYVSADDFVEEQNVYVLPKNLLKKFIEISDVKIQVAAFIYGMSAKDHPKVKEIKTVVLVPQLGHVGSVQISNIPDIGDLPDTEGLELLGWIHTQTEELKFMAASEVATHSKLFADKKRDCIDISIFSTPGSVSLSAYNLTDEGYQWGEENKDIMNVLSEGFEPTFSTHAQLLLSDRITGNFIIPSGNVWNYTFMGTAFNQEGDYNFKYGIPLELYNEMHRPVHFLQFSELAGDEELEAEQIDVFS
